Our source for the Kd values is article PMC6294498, “The structural basis of CstF-77 modulation of cleavage and polyadenylation through stimulation of CstF-64 activity”.

In data set [1] the target is T1, CstF-64 RRM-Hinge;CstF-77 MT (MT-CTD lacking last 30 aa) (Homo sapiens;Homo sapiens, UniProt P33240;Q12996 1-195;607-687, |del688-717).
T1 sequence 1: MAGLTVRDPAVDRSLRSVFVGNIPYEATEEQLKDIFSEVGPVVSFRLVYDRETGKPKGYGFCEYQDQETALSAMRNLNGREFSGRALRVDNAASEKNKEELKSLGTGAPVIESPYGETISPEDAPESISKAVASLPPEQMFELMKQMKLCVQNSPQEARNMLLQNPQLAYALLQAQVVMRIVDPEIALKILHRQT
T1 sequence 2: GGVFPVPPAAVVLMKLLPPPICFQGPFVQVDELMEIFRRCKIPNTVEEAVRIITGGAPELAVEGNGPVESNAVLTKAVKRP
The data set can be described thus: NMR (1H-15N HSQC titration); 10 mM phosphate pH 6.0, 2 mM TCEP, 30 C; 15N-labeled protein titrated with unlabeled RNA. Conditions: protein: recombinant;recombinant, tags: His6-TEV, removed by TEV;MBP-TEV, copies: 1;1, label: none, single strand.

A further data set concerns the target T2, CstF-64 RRM (Homo sapiens, UniProt P33240 1-107).
T2 sequence: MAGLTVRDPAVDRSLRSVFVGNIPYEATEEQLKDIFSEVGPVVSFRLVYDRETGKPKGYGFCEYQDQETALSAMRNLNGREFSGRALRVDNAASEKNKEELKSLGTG
The data set is described as above. Particulars: protein: recombinant; tags: His6-TEV, removed by TEV; label: none; single strand.

In data set [2] the target is T3, CstF-64 RRM-Hinge;CstF-77 MT-CTD (Homo sapiens;Homo sapiens, UniProt P33240;Q12996 1-195;607-717, |).
T3 sequence 1: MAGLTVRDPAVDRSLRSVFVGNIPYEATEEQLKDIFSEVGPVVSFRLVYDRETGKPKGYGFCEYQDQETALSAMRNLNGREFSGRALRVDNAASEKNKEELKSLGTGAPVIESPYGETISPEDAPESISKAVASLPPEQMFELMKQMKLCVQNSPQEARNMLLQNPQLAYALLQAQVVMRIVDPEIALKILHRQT
T3 sequence 2: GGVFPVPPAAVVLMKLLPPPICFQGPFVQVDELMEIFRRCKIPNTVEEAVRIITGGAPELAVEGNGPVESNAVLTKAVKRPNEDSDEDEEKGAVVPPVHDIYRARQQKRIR
As to the kind of experiment: NMR (1H-15N HSQC titration); smaller CSPs; last 30 aa of CstF-77 show no significant CSP; 10 mM phosphate pH 6.0, 2 mM TCEP, 30 C; 15N-labeled protein titrated with unlabeled RNA. Conditions: protein: recombinant;recombinant, tags: His6-TEV, removed by TEV;MBP-TEV, copies: 1;1, label: none, single strand.

The Kd is the equilibrium constant for the complex coming apart. On to AUUUUAUGUUUCAGGU (ssRNA) [SVL RNA], for which the Kd in data set [1] is 3.5 ± 1 µM; with CstF-64 RRM, 0.7 ± 0.4 µM; in data set [2], 3.3 ± 2.3 µM.
